The source of these data is paper PMC3949746.

The target of assay [1] is ribulose-1,5-bisphosphate carboxylase/oxygenase (RuBisCO) large subunit of Serratia sp. ISTD04 (Serratia sp. ISTD04 (endogenous)). As to the kind of experiment: SEC; native RuBisCO purified from Serratia sp. ISTD04, Superdex 200 FPLC gel filtration in buffer A (200 mM Tris-Cl, 10 mM MgCl2, 132 mM KHCO3, 10 mM DTT, ATP, pH 7.8), 0.5 ml/min, 4°C; subunits of the eluted enzyme shown by SDS-PAGE (12%). A general note: Size exclusion chromatography separates by hydrodynamic size, large species first.

The target in assay [2] is ribulose-1,5-bisphosphate carboxylase/oxygenase (RuBisCO) small subunit of Serratia sp. ISTD04 (Serratia sp. ISTD04 (endogenous)). The description is as above.

The substance “ribulose-1,5-bisphosphate carboxylase/oxygenase (RuBisCO) large subunit of Serratia sp. ISTD04 (natural protein)” gave a stoichiometry N in assay [1] of 8.
In turn, “ribulose-1,5-bisphosphate carboxylase/oxygenase (RuBisCO) small subunit of Serratia sp. ISTD04 (natural protein)” showed a stoichiometry N in assay [2] of 8.

By stoichiometry N is commonly meant the number of molecules, sites or subunits per partner or assembly.
